Measured values: paper PMC8869655, “Identification of the Kinase-Substrate Recognition Interface between MYPT1 and Rho-Kinase” (Biomolecules, 2022)

Tests used:
[1] = tested on: GST-MRCKβ-cat-L (human, residues 1–550); test: In vitro kinase assay, MRCKβ activity; type: biochemical; details: S6 rsk substrate peptide (40 µM) as substrate, γ-[32P]ATP, N=3, Figure S3B
Experimental: (§1) The kinase reactions were performed in 50 μL of a reaction mixture (25 mM Tris-HCl, pH 7.5, 1 mM EDTA, 1 mM EGTA, 1 mM DTT, 5 mM MgCl2, and 50 μM γ-[^32P]ATP [1–20 GBq/mmol]), GST-Rho-kinase-cat-L or other kinases (1–10 nM), and substrates for 10–20 min at 30 °C. The reaction mixtures were applied to cation-exchange membranes and washed with 75 mM phosphoric acid three times, which was followed by scintillation counting.
(§2) Supplem entary Figure S3. Inhibition of the kinase activity by the MYPT1-684-868 aa-4A […]
(§3) (A) In vitro phosphorylation of various substrates by Rho -kinase. S6 rsk substrate peptide (40 µM), GST-MYPT1 fragments (0.5 µM), GST-MLC (0.5 µM), or GST-Scrib-C (1235-1630 aa) (0.5 µM) was phosphorylated by GS T-Rho-kinase-cat-L with 1 µM GST or GST-MYPT1-684-868 aa-4A in the presence of γ-[32P]ATP. Data represent means ± SD. N=3. (B ) GS T-Rho-kinase-cat-L, GST-MRCKβ-cat-L, and GST-PKACα activities were examined using the S6 rsk substrate peptide (40 µM) as a substrate in the presence of γ-[32P]ATP and GST-MYPT1-684-868 aa-4A fragment at the indicated concentrations. The reaction mixtures were applied onto cation-exchange membranes, followed by scintillation counting. Data represent means ± SD. N=3.
(§4) (1 picture or pasted object on this page, not shown here)

NIH3T3 cells = test: Actin stress fiber formation in NIH3T3 cells; type: cell-based; details: GST-MYPT1 fragment expressed in NIH3T3 cells, 24 h, phalloidin staining, N = 4
Experimental: NIH3T3 cells were seeded on polylysine-coated 13-mm coverslips at a density of 4 × 10^4 cells/well in a 6-well dish and cultured in DMEM with 10% calf serum overnight. The cells were transfected with plasmid using LIPOFECTAMINE LTX reagent (Thermo Fisher Scientific, Waltham, MA, USA), according to the manufacture’s protocol. After 24 h, the cells were incubated in fresh DMEM containing 10% calf serum for 20 min, fixed with 3.7% formaldehyde in PBS for 10 min and then treated with PBS containing 0.2% Triton X-100 for 10 min. The fixed cells were blocked with 1% bovine serum albumin for 30 min and stained with the indicated antibodies. Cover slips were mounted with Fluoromount (Diagnostic Biosystems, Pleasanton, CA, USA) and the fluorescence was examined using a confocal laser scanning microscope LSM 780 and LSM5 PASCAL built around an Axio Observer Z1 or Axiovert 200M under the control of LSM software (Carl Zeiss, Oberkochen, Germany). Images were processed using ImageJ or Photoshop (Adobe, San Jose, CA, USA).
Figure 3 Inhibition of MYPT1 phosphorylation by the Rho-kinase-binding fragment of MYPT1. (A,B) Effect of the overexpression of Rho-kinase-binding MYPT1 fragments on GFP-MYPT1 phosphorylation in COS7 cells. Full-length GFP-MYPT1 and the GST-MYPT1 Rho-kinase binding fragment were transiently expressed in COS7 cells. The cell lysates were analyzed by immunoblot analysis using anti-MYPT1-pT855 (top panel), anti-GFP (middle), or anti-GST (bottom) antibodies. The phospho-GFP-MYPT1 levels were quantified and normalized by GFP-MYPT1 levels. Data represent means ± SD. **, p < 0.01, ***, p < 0.001 as compared with the control. (C) Effect of the overexpression of Rho-kinase-binding MYPT1 fragments on stress fiber formation in NIH3T3 cells. GST-MYPT1 fragments were expressed in NIH3T3 cells. The cells were fixed in formaldehyde, and immunostained with phalloidin and anti-GST antibody. […] The percentages of cells with stress fibers throughout the cell (SF(++)), cells with stress fibers partly in the cell (SF(+)), and cells without stress fibers (SF(–)) were analyzed. […]

[2] = molecular target: T1, GST-Rho-kinase-cat-L (bovine, residues 6–553) (Bos taurus, UniProt Q28021); test: In vitro kinase assay, Rho-kinase-cat-L activity; type: biochemical; details: 1 µM inhibitory fragment, Figure S3A, N=3
T1 construct: GST-Rho-kinase-cat-L (bovine, residues 6–553); made in house; host or cells: Sf9 cells (baculovirus)
T1 sequence (Q28021 6-553): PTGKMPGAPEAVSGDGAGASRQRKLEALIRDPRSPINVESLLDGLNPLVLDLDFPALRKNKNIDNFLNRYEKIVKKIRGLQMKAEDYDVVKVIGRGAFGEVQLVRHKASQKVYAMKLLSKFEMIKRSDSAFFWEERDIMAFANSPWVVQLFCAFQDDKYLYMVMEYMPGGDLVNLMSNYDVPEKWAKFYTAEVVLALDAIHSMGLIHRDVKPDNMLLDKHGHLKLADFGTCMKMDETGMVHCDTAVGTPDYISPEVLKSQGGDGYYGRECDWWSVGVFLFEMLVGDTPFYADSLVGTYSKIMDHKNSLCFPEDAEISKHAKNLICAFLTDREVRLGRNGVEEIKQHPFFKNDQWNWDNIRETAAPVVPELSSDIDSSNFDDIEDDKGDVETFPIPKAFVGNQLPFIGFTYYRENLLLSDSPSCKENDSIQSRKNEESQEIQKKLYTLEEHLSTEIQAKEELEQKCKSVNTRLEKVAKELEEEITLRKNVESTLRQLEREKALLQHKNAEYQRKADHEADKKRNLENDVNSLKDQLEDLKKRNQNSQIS

[3] = molecular target: T1, GST-Rho-kinase-cat-L (bovine, residues 6–553); test: In vitro kinase assay, Rho-kinase-cat-L activity; type: biochemical; details: S6 rsk substrate peptide as substrate, 50 μM γ-[32P]ATP, 30 °C, inhibitor at the indicated concentrations, scintillation counting, N = 3
Experimental: as §1
Figure 4 Direct inhibition of Rho-kinase activity in vitro. (A) In vitro phosphorylation of S6 rsk substrate peptide by Rho-kinase. GST-Rho-kinase-cat-L or GST-ROCK1-cat-L activity was examined using the S6 rsk substrate peptide as a substrate in the presence of γ-[^32P]ATP. GST-MYPT1-684–868 aa-WT or -4A was added at the indicated concentrations. The reaction mixtures were applied onto cation-exchange membranes, followed by scintillation counting. N = 3. (B) Effects of the deletion of DMs on the inhibition of Rho-kinase activity in vitro. GST-Rho-kinase-cat-L activity was examined using the S6 rsk substrate peptide as a substrate in the presence of γ-[^32P]ATP. GST-MYPT1-684–868-4A with or without DMs was added at the indicated concentrations. The reaction mixtures were applied onto cation-exchange membranes, followed by scintillation counting. N = 3. The deletion of DM1 or DM2 moderately weakened the inhibitory effect and the deletion of both DM1 and DM2 completely abrogated the inhibitory effects of the MYPT1 fragment on the Rho-kinase activity. (C) Sequences of the DMs and phosphorylation sites of MYPT1. The sequences of MYPT1 683–715 aa and 836-860 aa and synthetic peptides are shown. Basic (blue), acidic (red), and aliphatic (green) amino acids within DMs are indicated. Phosphorylation sites are replaced by Ala in pseudosubstrate (PS) peptides. (D) Inhibition of Rho-kinase activity by PS2 + DM2 synthetic peptide. GST-Rho-kinase-cat-L activity was examined using the S6 rsk substrate peptide as a substrate in the presence of γ-[^32P]ATP. Synthetic peptides were added at the indicated concentrations. The reaction mixtures were applied onto cation-exchange membranes, followed by scintillation counting. N = 3. (E) Inhibition of Rho-kinase activity by PS1 + DM3 synthetic peptide. GST-Rho-kinase-cat-L activity was examined using the S6 rsk substrate peptide as a substrate in the presence of γ-[^32P]ATP. Synthetic peptides were added at the indicated concentrations. The reaction mixtures were applied onto cation-exchange membranes, followed by scintillation counting. N = 3.

GST-PKACα = test: In vitro kinase assay, PKA activity; type: biochemical; details: S6 rsk substrate peptide (40 µM) as substrate, γ-[32P]ATP, N=3, Figure S3B
Experimental: as §1, §2, §3, §4

Inhibition of MRCKβ activity (in words) [1]: moderately inhibited | Inhibition of phosphorylation of MLC by Rho-kinase ([2]; substrate GST-MLC (0.5 µM)): inhibited | Inhibition of phosphorylation of MYPT1 by Rho-kinase ([2]; substrate GST-MYPT1 fragments (0.5 µM)): much weaker | Inhibition of phosphorylation of Scrib by Rho-kinase ([2]; substrate GST-Scrib-C (1235-1630 aa) (0.5 µM)): inhibited | Inhibition of Rho-kinase-cat-L activity (in words) [3]: inhibited the Rho-kinase-cat-L activity | Inhibition of PKA activity (in words) (GST-PKACα): did not inhibit
B1: MYPT1-684–868 aa-4A: GST-fused rat MYPT1 fragment 684–868 aa with the four phosphorylation sites replaced with Ala (protein)
chain: KARSRQARQSRRAAQGVTLTDLQEAEKTIGRSRSTRTREQENEEKDKEEKEKQDKEKQEEKKESEVSREDEYKQKYSRTYDETYARYRPVSTSSSSTPSSSSLSTLGSSLYASSQLNRPNSLVGITSAYSRGLTKDNEREGEKKEEEKEGEDKSQPKSIRERRRPREKRRAAGVSFWTQDSDENE
modifications: left off: GST, end not stated, kept
notes: GST-fused rat MYPT1 fragment 684–868 aa with the four phosphorylation sites replaced with Ala
Effect on actin stress fiber formation (NIH3T3 cells): reduced actin stress fibers
